Source: paper doi:10.1101/2024.08.29.610253 (2024)
Where two headings read alike, the source gives them in different places.

T1: liprin-α2_CC2 (human, UniProt O75334 259-542)
T1 chain: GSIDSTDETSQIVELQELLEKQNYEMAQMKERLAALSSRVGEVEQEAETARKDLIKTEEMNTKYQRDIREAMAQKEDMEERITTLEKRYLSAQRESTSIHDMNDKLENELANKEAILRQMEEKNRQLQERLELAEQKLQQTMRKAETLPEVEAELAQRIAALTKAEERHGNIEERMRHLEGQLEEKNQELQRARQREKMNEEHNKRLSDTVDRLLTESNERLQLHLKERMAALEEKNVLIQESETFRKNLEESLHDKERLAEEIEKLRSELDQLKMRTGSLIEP

T2: liprin-α2_CC2N E380R (human, UniProt O75334 300-404, E380R)
T2 sequence: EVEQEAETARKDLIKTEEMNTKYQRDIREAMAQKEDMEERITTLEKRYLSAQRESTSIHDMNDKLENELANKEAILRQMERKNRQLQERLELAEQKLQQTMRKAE

T3: liprin-α2_CC2N A350S (human, UniProt O75334 300-404, A350S)
T3 sequence: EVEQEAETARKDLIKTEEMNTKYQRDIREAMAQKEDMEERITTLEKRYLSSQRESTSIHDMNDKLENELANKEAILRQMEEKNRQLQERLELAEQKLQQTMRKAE

B1: liprin-α2_CC2N (domain or fragment)
chain: EVEQEAETARKDLIKTEEMNTKYQRDIREAMAQKEDMEERITTLEKRYLSAQRESTSIHDMNDKLENELANKEAILRQMEEKNRQLQERLELAEQKLQQTMRKAE

Assays:
Assay in all cases: ITC
RIM1_C2B R1236E [1] = target: RIM1_C2B R1236E
RIM1_C2B L1245Q [2] = target: RIM1_C2B L1245Q
RIM1_C2B K1240E [3] = target: RIM1_C2B K1240E
RIM1_C2B L1245Q [4] = target: RIM1_C2B L1245Q; remark: listed apart in the source
RIM1_C2B R1236E [5] = target: RIM1_C2B R1236E; remark: listed apart in the source
RIM1_C2B K1240E [6] = target: RIM1_C2B K1240E; remark: listed apart in the source
liprin-α2_CC2N = target: B1
liprin-α2_CC2 = target: T1, liprin-α2_CC2
liprin-α2_CC2N R383A [7] = target: liprin-α2_CC2N R383A
liprin-α2_CC2N E379R [8] = target: liprin-α2_CC2N E379R
liprin-α2_CC2N E380R [9] = target: T2, liprin-α2_CC2N E380R
liprin-α2_CC2N R383A [10] = target: liprin-α2_CC2N R383A; remark: listed apart in the source
liprin-α2_CC2N E379R [11] = target: liprin-α2_CC2N E379R; remark: listed apart in the source
liprin-α2_CC2N A350S = target: T3, liprin-α2_CC2N A350S
liprin-α2_CC2N E380R [12] = target: T2, liprin-α2_CC2N E380R; remark: listed apart in the source

Kd (RIM1_C2B R1236E [1]) [µM] | Kd (RIM1_C2B L1245Q [2]) [µM] | Kd (RIM1_C2B K1240E [3]) [µM] | Kd (RIM1_C2B L1245Q [4]) [µM] | Kd (RIM1_C2B R1236E [5]) [µM] | Kd (RIM1_C2B K1240E [6]) [µM] | Kd (liprin-α2_CC2N) [µM] | Kd (liprin-α2_CC2) [µM] | Kd (liprin-α2_CC2N R383A [7]) [µM] | Kd (liprin-α2_CC2N E379R [8]) [µM] | Kd (liprin-α2_CC2N E380R [9]) [µM] | Kd (liprin-α2_CC2N R383A [10]) [µM] | Kd (liprin-α2_CC2N E379R [11]) [µM] | Kd (liprin-α2_CC2N A350S) [µM] | Kd (liprin-α2_CC2N E380R [12]) [µM] | Binder
27 | > 100 | 25 | > 100 | 27 | 25 |  |  |  |  |  |  |  |  |  | B1
 |  |  |  |  |  | 4 | 5 | 24 | 23 | 8.2 | 24 | 23 | 5.7 | 8.2 | RIM1_C2B (domain or fragment) GPAQLVGRQTLATPAMGDIQIGMEDKKGQLEVEVIRARSLTQKPGSKSTPAPYVKVYLLENGACIAKKKTRIARKTLDPLYQQSLVFDESPQGKVLQVIVWGDYGRMDHKCFMGVAQILLEELDLSSMVIGWYKLFPPSSLVDPTLAPLTRRASQSSLESSSGPPCIRS
